Experimental findings from paper PMC12254369, “Small molecule disruption of RARα/NCoR1 interaction inhibits chaperone-mediated autophagy in cancer” (EMBO Molecular Medicine, 2025) are described below.

Test [1] concerns the target T1, His-tagged RARα LBD with FITC-SRC (Homo sapiens, UniProt P10276).
T1 construct: gene RARA; LBD residues 176-462 with His tag
T1 sequence (P10276 176-462): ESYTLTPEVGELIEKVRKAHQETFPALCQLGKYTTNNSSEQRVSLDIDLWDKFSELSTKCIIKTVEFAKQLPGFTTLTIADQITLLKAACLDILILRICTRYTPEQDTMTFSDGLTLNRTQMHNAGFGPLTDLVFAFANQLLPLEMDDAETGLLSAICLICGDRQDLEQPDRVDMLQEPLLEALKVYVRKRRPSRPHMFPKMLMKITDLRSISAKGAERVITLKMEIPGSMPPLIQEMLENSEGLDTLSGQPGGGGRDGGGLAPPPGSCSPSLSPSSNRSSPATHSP
The experiment in a line: TR-FRET coactivator peptide recruitment. In kind it is binding. Particulars: 3 nM His-RARα LBD, 50 nM FITC-SRC, 5 mM DTT, pH 7.4, 1 h; agonist. On the technique in general: TR-FRET usually uses a lanthanide donor and a delayed reading to cut background.

Test [2] has as its target T2, Recombinant RARα LBD (ligand binding domain of human retinoic acid receptor alpha, residues 176-462, … (human, UniProt P10276 176-462)).
T2 construct: The His tag is detected by the anti-6HIS Tb cryptate antibody in the TR-FRET assay; also called His-tagged RARα LBD; source: E. coli BL21(DE3), purified (Ni-NTA, Superdex 200 gel filtration); not shown: His tag, N-terminal, kept
T2 sequence (looked up): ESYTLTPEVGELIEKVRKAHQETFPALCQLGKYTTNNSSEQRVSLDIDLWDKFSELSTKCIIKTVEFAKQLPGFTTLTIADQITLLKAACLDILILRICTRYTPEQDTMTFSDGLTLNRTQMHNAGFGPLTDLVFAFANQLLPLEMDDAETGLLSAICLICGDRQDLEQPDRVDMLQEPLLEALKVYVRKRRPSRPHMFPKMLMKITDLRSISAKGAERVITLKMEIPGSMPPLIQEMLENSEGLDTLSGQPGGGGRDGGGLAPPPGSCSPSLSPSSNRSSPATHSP
The experiment in a line: fluorescence polarisation; RARα LBD serially diluted from 50 µM, 5 nM FITC-NCoR1 peptide; 20 mM HEPES, 150 mM NaCl, 5 mM DTT, pH 7.5; read at 1 h; with DMSO, 25 µM CIM7, 10 µM ATRA or AM580. Conditions: both partners purified. For orientation: In fluorescence polarisation assays a small probe gives low polarisation when free and higher when bound to something large.

The target of test [3] is T2, Recombinant RARα LBD (ligand binding …). The experiment in a line: AlphaScreen or HTRF; TR-FRET: 3 nM His-tagged RARα LBD, 0.5 nM anti-6HIS Tb cryptate (donor), 50 nM FITC-SRC (acceptor); 1x PBS, 0.02% Pluronic F-127, 5 mM DTT, pH 7.4; 1 h; increasing concentrations of CIM7, ATRA or AM580. Particulars: both partners purified.

Ends that are not written are not given here. * marks the point of attachment. FITC = O=C1OC2(c3ccc(O)cc3Oc3cc(O)ccc32)c2ccc(NC(=S)*)cc21; Ahx = NCCCCCC(=O)O

On to `CC1=C(/C=C/C(C)=C/C=C/C(C)=C/C(=O)O)C(C)(C)CCC1` [ATRA, All-trans retinoic acid], for which the “TR-FRET coactivator peptide recruitment” value in test [1] is given as “rather enhance binding of the coactivator, SRC”.

B1: FITC-NCoR1 peptide (FITC-Ahx-RLITLADHICQIITQDFAR) (peptide)
peptide: {FITC-Ahx}-RLITLADHICQIITQDFAR
notes: peptide of nuclear receptor corepressor 1 (NCoR1); also called NCoR1 fluorescent peptide; source: synthetic peptide (GenScript, purity >95%)
Turning to B1, the binding result in test [2] is reported as “binds”.

B2: FITC-SRC peptide (FITC-Ahx-RHKILHRLLQEGS) (peptide)
peptide: {FITC-Ahx}-RHKILHRLLQEGS
notes: source: synthetic peptide (GenScript, purity >95%)
For the molecule B2, in test [3], the binding result is “binds”.
